Results: US20210388087A1 (Chugai, published 2021)
Positions count from the first letter of the chain named.

B1: CE115HA000 G100bD (antibody, human IgG1, kappa, L234A L235A, N297A, name in Kabat numbering)
heavy: QVQLVESGGGVVQPGRSLRLSCAASGFTFSNAWMHWVRQAPGKGLEWVAQIKAKSNNYATYYAESVKGRFTISRDDSKNSLYLQMNSLKTEDTAVYYCRYVHYGAYYDVDAWGQGTTVTVSSASTKGPSVFPLAPSSKSTSGGTAALGCLVKDYFPEPVTVSWNSGALTSGVHTFPAVLQSSGLYSLSSVVTVPSSSLGTQTYICNVNHKPSNTKVDKKVEPKSCDKTHTCPPCPAPEAAGGPSVFLFPPKPKDTLMISRTPEVTCVVVDVSHEDPEVKFNWYVDGVEVHNAKTKPREEQYASTYRVVSVLTVLHQDWLNGKEYKCKVSNKALPAPIEKTISKAKGQPREPQVYTLPPSRCELTKNQVSLSCAVKGFYPSDIAVEWESNGQPENNYKTTPPVLDSDGSFFLVSKLTVDKSRWQQGNVFSCSVMHEALHNHYTQKSLSLSPDYKDDDDK
chain: EPKSSDKTHTCPPCPAPELLGGPSVFLFPPKPKDTLMISRTPEVTCVVVDVSHEDPEVKFNWYVDGVEVHNAKTKPREEQYNSTYRVVSVLTVLHQDWLNGKEYKCKVSNKALPAPIEKTISKAKGQPREPQVCTLPPSRDELTKNQVSLWCLVKGFYPSDIAVEWESNGQPENNYKTTPPVLDSDGSFFLYSKLTVDKSRWQQGNVFSCSVMHEALHNRYTQKSLSLSP
light: DIVMTQSPLSLPVTPGEPASISCRSSQSLVHSNRNTYLHWYQQKPGQAPRLLIYKVSNRFSGVPDRFSGSGSGTDFTLKISRVEAEDVGVYYCGQGTQVPYTFGQGTKLEIKRTVAAPSVFIFPPSDEQLKSGTASVVCLLNNFYPREAKVQWKVDNALQSGNSQESVTEQDSKDSTYSLSSTLTLSKADYEKHKVYACEVTHQGLSSPVTKSFNRGEC
notes: one-arm antibody
B2: CE115HA000 H35E (antibody, human IgG1, kappa, L234A L235A, N297A, name in Kabat numbering)
heavy: B1 heavy with H35E, D108G
chain: B1 chain
light: B1 light
notes: one-arm antibody
B3: CE115HA000 H96K (antibody, human IgG1, kappa, L234A L235A, N297A, name in Kabat numbering)
heavy: B1 heavy with H102K, D108G
chain: B1 chain
light: B1 light
notes: one-arm antibody
B4: CE115HA000 H35Y (antibody, human IgG1, kappa, L234A L235A, N297A, name in Kabat numbering)
heavy: B1 heavy with H35Y, D108G
chain: B1 chain
light: B1 light
notes: one-arm antibody
B5: CE115HA000 H35R (antibody, human IgG1, kappa, L234A L235A, N297A, name in Kabat numbering)
heavy: B1 heavy with H35R, D108G
chain: B1 chain
light: B1 light
notes: one-arm antibody
B6: CE115HA000 G100bE (antibody, human IgG1, kappa, L234A L235A, N297A, name in Kabat numbering)
heavy: B1 heavy with D108E
chain: B1 chain
light: B1 light
notes: one-arm antibody
B7: CE115HA000 G100bS (antibody, human IgG1, kappa, L234A L235A, N297A, name in Kabat numbering)
heavy: B1 heavy with D108S
chain: B1 chain
light: B1 light
notes: one-arm antibody
B8: CE115HA000 I51D (antibody, human IgG1, kappa, L234A L235A, N297A, name in Kabat numbering)
heavy: B1 heavy with I51D, D108G
chain: B1 chain
light: B1 light
notes: one-arm antibody
B9: CE115HA000 H35I (antibody, human IgG1, kappa, L234A L235A, N297A, name in Kabat numbering)
heavy: B1 heavy with H35I, D108G
chain: B1 chain
light: B1 light
notes: one-arm antibody
B10: CE115HA000 H96L (antibody, human IgG1, kappa, L234A L235A, N297A, name in Kabat numbering)
heavy: B1 heavy with H102L, D108G
chain: B1 chain
light: B1 light
notes: one-arm antibody
B11: CE115HA000 G100bF (antibody, human IgG1, kappa, L234A L235A, N297A, name in Kabat numbering)
heavy: B1 heavy with D108F
chain: B1 chain
light: B1 light
notes: one-arm antibody
B12: CE115HA000 H96R (antibody, human IgG1, kappa, L234A L235A, N297A, name in Kabat numbering)
heavy: B1 heavy with H102R, D108G
chain: B1 chain
light: B1 light
notes: one-arm antibody
B13: CE115HA000 H35N (antibody, human IgG1, kappa, L234A L235A, N297A, name in Kabat numbering)
heavy: B1 heavy with H35N, D108G
chain: B1 chain
light: B1 light
notes: one-arm antibody
B14: CE115HA000 H96G (antibody, human IgG1, kappa, L234A L235A, N297A, name in Kabat numbering)
heavy: B1 heavy with H102G, D108G
chain: B1 chain
light: B1 light
notes: one-arm antibody
B15: CE115HA000 K43E (antibody, human IgG1, kappa, L234A L235A, N297A, name in Kabat numbering)
heavy: B1 heavy with K43E, D108G
chain: B1 chain
light: B1 light
notes: one-arm antibody
B16: CE115HA000 H35T (antibody, human IgG1, kappa, L234A L235A, N297A, name in Kabat numbering)
heavy: B1 heavy with H35T, D108G
chain: B1 chain
light: B1 light
notes: one-arm antibody
B17: CE115HA000 H96Q (antibody, human IgG1, kappa, L234A L235A, N297A, name in Kabat numbering)
heavy: B1 heavy with H102Q, D108G
chain: B1 chain
light: B1 light
notes: one-arm antibody
B18: CE115HA000 H35S (antibody, human IgG1, kappa, L234A L235A, N297A, name in Kabat numbering)
heavy: B1 heavy with H35S, D108G
chain: B1 chain
light: B1 light
notes: one-arm antibody
B19: CE115HA000 H35W (antibody, human IgG1, kappa, L234A L235A, N297A, name in Kabat numbering)
heavy: B1 heavy with H35W, D108G
chain: B1 chain
light: B1 light
notes: one-arm antibody
B20: CE115HA000 H35V (antibody, human IgG1, kappa, L234A L235A, N297A, name in Kabat numbering)
heavy: B1 heavy with H35V, D108G
chain: B1 chain
light: B1 light
notes: one-arm antibody
B21: CE115HA000 G100bY (antibody, human IgG1, kappa, L234A L235A, N297A, name in Kabat numbering)
heavy: B1 heavy with D108Y
chain: B1 chain
light: B1 light
notes: one-arm antibody
B22: CE115HA000 H35G (antibody, human IgG1, kappa, L234A L235A, N297A, name in Kabat numbering)
heavy: B1 heavy with H35G, D108G
chain: B1 chain
light: B1 light
notes: one-arm antibody
B23: CE115HA000 I51E (antibody, human IgG1, kappa, L234A L235A, N297A, name in Kabat numbering)
heavy: B1 heavy with I51E, D108G
chain: B1 chain
light: B1 light
notes: one-arm antibody
B24: CE115HA000 H35M (antibody, human IgG1, kappa, L234A L235A, N297A, name in Kabat numbering)
heavy: B1 heavy with H35M, D108G
chain: B1 chain
light: B1 light
notes: one-arm antibody
B25: CE115HA000 H35Q (antibody, human IgG1, kappa, L234A L235A, N297A, name in Kabat numbering)
heavy: B1 heavy with H35Q, D108G
chain: B1 chain
light: B1 light
notes: one-arm antibody
B26: CE115HA000 H96S (antibody, human IgG1, kappa, L234A L235A, N297A, name in Kabat numbering)
heavy: B1 heavy with H102S, D108G
chain: B1 chain
light: B1 light
notes: one-arm antibody
B27: CE115HA000 H35F (antibody, human IgG1, kappa, L234A L235A, N297A, name in Kabat numbering)
heavy: B1 heavy with H35F, D108G
chain: B1 chain
light: B1 light
notes: one-arm antibody
B28: CE115HA000 H96Y (antibody, human IgG1, kappa, L234A L235A, N297A, name in Kabat numbering)
heavy: B1 heavy with H102Y, D108G
chain: B1 chain
light: B1 light
notes: one-arm antibody
B29: CE115HA000 H35L (antibody, human IgG1, kappa, L234A L235A, N297A, name in Kabat numbering)
heavy: B1 heavy with H35L, D108G
chain: B1 chain
light: B1 light
notes: one-arm antibody
B30: CE115HA000 G100bL (antibody, human IgG1, kappa, L234A L235A, N297A, name in Kabat numbering)
heavy: B1 heavy with D108L
chain: B1 chain
light: B1 light
notes: one-arm antibody
B31: CE115HA000 H96P (antibody, human IgG1, kappa, L234A L235A, N297A, name in Kabat numbering)
heavy: B1 heavy with H102P, D108G
chain: B1 chain
light: B1 light
notes: one-arm antibody
B32: CE115HA000 H35K (antibody, human IgG1, kappa, L234A L235A, N297A, name in Kabat numbering)
heavy: B1 heavy with H35K, D108G
chain: B1 chain
light: B1 light
notes: one-arm antibody
B33: CE115HA000 H35D (antibody, human IgG1, kappa, L234A L235A, N297A, name in Kabat numbering)
heavy: B1 heavy with H35D, D108G
chain: B1 chain
light: B1 light
notes: one-arm antibody

molecular target: T1, CD3 epsilon homodimer protein (UniProt P07766 23-126); assay: SPR, CD3 epsilon homodimer on chip, one-arm antibody as analyte;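 note: surface plasmon resonance at 25 °C with CD3 epsilon homodimer amine-coupled to a CM4 sensor chip, antibody injected as analyte, HBS-EP+ as running buffer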
T1 construct: also called CD3 (CD3 epsilon)
T1 sequence (P07766 23-126): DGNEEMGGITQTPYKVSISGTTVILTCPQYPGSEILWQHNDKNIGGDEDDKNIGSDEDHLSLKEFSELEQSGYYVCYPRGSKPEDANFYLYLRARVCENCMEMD
Protocol: An appropriate amount of CD3 epsilon homodimer protein was immobilized onto Sensor chip CM4 (GE Healthcare Japan Corp.) by the amine coupling method. Then, the antibody having an appropriate concentration was injected thereto as an analyte and allowed to interact with the CD3 epsilon homodimer protein on the sensor chip. Then, the sensor chip was regenerated by the injection of 10 mmol/L glycine-HCl (pH 1.5). The assay was conducted at 25 degrees C., and HBS-EP+(GE Healthcare Japan Corp.) was used as a running buffer. […] Each parameter was calculated using Biacore T200 Evaluation Software (GE Healthcare Japan Corp.).

| Binder | KD ratio (KD of CE115HA000/KD of altered form) |
| --- | --- |
| B1 | 6.25 |
| B2 | 70.3 |
| B3 | 1.56 |
| B4 | 119000 |
| B5 | 15400 |
| B6 | 7.29 |
| B7 | 1.25 |
| B8 | 6.37 |
| B9 | 7.23 |
| B10 | 3.14 |
| B11 | 4.37 |
| B12 | 1.59 |
| B13 | 2.88 |
| B14 | 0.8 |
| B15 | 0.88 |
| B16 | 4.4 |
| B17 | 1.36 |

| Binder | KD ratio (KD of CE115HA000/KD of altered form) |
| --- | --- |
| B18 | 2.93 |
| B19 | 50.4 |
| B20 | 28.1 |
| B21 | 51.4 |
| B22 | 45.8 |
| B23 | 0.54 |
| B24 | 3.98 |
| B25 | 4.8 |
| B26 | 1.15 |
| B27 | 53.6 |
| B28 | 6.67 |
| B29 | 4.8 |
| B30 | 5.84 |
| B31 | 87000 |
| B32 | 14.4 |
| B33 | 69 |
